Results taken from the DeepSol protein solubility set.

Assay: soluble on expression in E. coli; label from the status in PepcDB or PDB records

Sequence	soluble on expression in E. coli
MTMLKNNLELLKKRYPEIYNEIKDIHVDSNAYQIIQNNEGQKTLKVTLDLYGENKSFFLHSKYHPDVEADRFAREQYKPEFSIQILYGFGLGYHVEKIAGLLKPDSMLYVIENNLMVFRSALENMDLCPILENRNVSLIVSKDVGYISEKVKELIDNNLDKVSFITHPASLKAIPEENEYFKFVMENWNLKKSITDDYDNTLRNNAKENLKLNSPNVGIFFDKFKDVPIIIVSTGPSLDKNIDLLKEAKGRALIISAGSALRPLLMRNIKPDFFAIIDPQDITYNQIKGYENIGIPFIYLVTAASYTVSRYLGPKLVAYYGKYNNSSEHLVDSGGSVATTILDIAIKMGGNPIILVGQDLAYVDGKNHAQYGSHASIYSPELKNMRRVKGQNGEMLYTSLGLLSYKYWIENRIQKEKRIFINATEGGAYIEGMKHIKLRDVISDYLKESFDFENKIKSILKESGIQHVQG	soluble
MTMQHASSAGRRPAVPVYLKIRNAIRDAISNAAYAPGDLLPSETELAKRYATTRATVVHAIQQLVFEGLVERKRGVGSFVAQPKLSSTVDTHRVAYFEQDAFARDLTYEVIGYGKAVVEDHVRDTLRLGRGEPVYRLQRLRLLLGKPIAFELRYLPALVGARLTAEMLARRSVQSLLDEEVGMPITRFLNAVRVALVPAAVARHLQLEKGRPVMVRTHTFLDAADTPLLWGETLYREEYQINYVLTAMQAPDEAVGGRPRKGAGRA	not soluble
MTNLFLCSLRFQFVVVCTRYDQSVGFSTEEHNIVEDASGFVTQHSSGSTLNESSRSCLQLVIVSQRNLEVYLGRDNVETLRKIGEANRGEFSKDFSVWCKTVFESMSNAYVSSLETEQSNVTSRVTRNIRPRTNEENRMQMEELQTAMQVERSVAASSSLSSSFDWNAFLRDRCGLSEEDVAYCLPKLSFIGMIDLSGVTTEFLLKCGIDSPSLRLRIMLGIRQLLAK	not soluble
MTNLFVRSGISFVDRSEVLTHIGNEMLAKGVVHDTWPQALIAREAEFPTGIMLEQHAIAIPHCEAIHAKSSAIYLLRPTNKVHFQQADDDNDVAVSLVIALIVENPQQQLKLLRCLFGKLQQPDIVETLITLPETQLKEYFTKYVLDSDE	soluble
MTNLPMNKLIDEVNNELSVAINKSVMDTQLEESMLYSLNAGGKRIRPVLLLLTLDSLNTEYELGMKSAIALEMIHTYSLIHDDLPAMDNDDYRRGKLTNHKVYGEWTAILAGDALLTKAFELISSDDRLTDEVKIKVLQRLSIASGHVGMVGGQMLDMQSEGQPIDLETLEMIHKTKTGALLTFAVMSAADIANVDDTTKEHLESYSYHLGMMFQIKDDLLDCYGDEAKLGKKVGSDLENNKSTYVSLLGKDGAEDKLTYHRDAAVDELTQIDEQFNTKHLLEIVDLFYSRDHKGHHHHHH	soluble
MTNSSSSKKQAQDQPETSEPTLKSLKTKMTKSDEKQKKLKDIEISVPIVYGNVAFWLGKKASEYQSHKWAVYVRGATNEDISVVVKKVVFQLHSSFNSPTRVIEEPPFEVSESGWGEFEIAMTLHFHSDVCDKPLSLYHHLKLYPEDESGPLTMKKPVVVESYDEIVFPDPSESFLARVQNHPALTFPRLPSGYNLPAPMQVEDTGKKKRGDTKDHSLGQWFMSFSEADELLQLAAARQQVQAHIAKLRRQISLLEGQNQTVKTGSDL	not soluble
MTNTSFDNSTIVVGVAGGIAAYKSCHVVRGFKEDGANVVVVPTSAALNFVGKATFEALSGNPVSTTVFDAVDEVRHVNVGQHADLIVVAPATADLIARVAMGRADDLLTATLLVATCPIVLVPAMHAEMWSNAATRENVATLRRRGIIVMDPAHGRLTGADTGPGRLPDSDQIIDFAKTVARTKVMPRDLVGKKVL	not soluble
MTPDLKTSPPPATLFSEDAEAIAKYLDESAKNGRDSGKNKSTQIRRFYDELVGWQERIGTDEQKFRDYAAFIHMLNAKAAYAQGRNLVTREFVQWLRDCIKQIDGPRTLNHFRLHFEAMIGFLKAIRG	not soluble
MTPLSALTSNPAPSPPPKFALGKCPATAIHVVSVLRPNRQRFCYEKTDAGDLIPHKCLICQPILTEKHISPYYAVYSDLLEDFVLFGYNTMTGKMEQFIYAFKTDCFVEVNRPEIKYNPAFLVKGNVVVALNGPEGELVVIERDCRGLLSKESTSYGQFRTLPTAALRTLTLQDLERDRWDRAANSDEVKISSGNESFDRLYAEYQKNLPRFQVRQCLHLNKEFLCVYSKTSGDYTRLEYIDETGDFQKISCTLCTCEVTESNLIPLYVERNASELVIHVHNTENNQIEQYIYDVRTFGFVQVKRNLVYDPKKITSGLNLFMAENIDNRKVYMIMRGRDGRLQKETSGSGGFEKMQPVAVKTFQVQWVEMKTEFEKKKASTERVEPQHPVQTEGEDIMETVLAMVESFNCDLRKELGLTQDQEIPRKAPRVESAETEENIVKNLEKLQIAKDPEEPTTAASEGGNTYGYQELDDTMSEGLLEKEAESKHQDANEPEPVKNVTYEPDVAAMDKKKKRRELKSRLNKINAQIDELEKRRMERAGKKQVVSSSVPSEEAAQVEAPASPALAENTNQISNEETPKIDIFEGYNGSFLFGTNTSKEWIVEDIRNHMVGKLLKAFWPRIQNVEEMNGELFKKLIANARKCETEILEASNDRDEYYRLMQLTVDQILKKTLKKDQRATEHNHQQPTQSSDELAKNHEKN	not soluble
MTPLSSPLSQYWQTVVERLPEGFTETSLSVQAKSVLTFSDFALDSVIAHPEWLAELESASPQADEWRHYAGWLQEALAGVCDDASLMRELRFFRRRIMVRIAWAQTLSLVDDETILQQLSHLAETLIVGARDWLYAACCREWGTPCNPQGVPQPLLILGMGKLGGGELNFSSDIDLIFAWPEHGETRGGRRELDNAQFFTRLGQRLIKALDQPTMDGFVYRVDMRLRPFGDSGPLVLSFAALEDYYQEQGRDWERYAMVKARLMGDNDDAWSRELRAMLRPFVFRRYIDFSVIQSLRNMKGMIAREVRRRGLKDNIKLGAGGIREIEFIVQVFQLIRGGREPSLQSRSLLPTLDAIAALHLLPENDVAQLRVAYLFLRRLENLLQSINDEQTQTLPADDLNRARLAWGMKAENWPQLVGELTDHMANVRRVFNELIGDDEADTPQEEERSEPWREVWQDALQEDDSTPVLAHLADEERRQVLTLIADFRKELDKRPIGPRGRQVLDQLMPHLLADVCSREDAAVTLSRITPLLAGIVTRTTYLELLSEFPGALKHLIMLCAASPMIASQLARYPLLLDELLDPGTLYQPTATDAYRDELRQYLLRVPEEDEEQQLEALRQFKQAQLLRIAAADIAGTLPVMKVSDHLTWLAEAMIDAVVQQAWTQMVARYGQPAHLDERQGRGFAVVGYGKLGGWELGYSSDLDLIFLHDCPMDVMTNGEREIDGRQFYLRLAQRIMHLFSTRTSSGILYEVDARLRPSGAAGMLVTSADAFADYQQHEAWTWEHQALVRARVVYGDPQLTSQFDAVRRTIMTTARDGKTLQTEVREMREKMRAHLGNKHRDRFDIKADEGGITDIEFIAQYLVLRYAHEKPKLTRWSDNVRILELLAQNGIMDEHEAQALTVAYTTLRDELHHLALQELPGHVAQTCFSKERALVQASWRKWLVAV	not soluble
MTPPEERQMLRETVASLVAKHAGPAAVRAAMASDRGYDESLWRLLCEQVGAAALVIPEELGGAGGELADAAIVVQELGRALVPSPLLGTTLAELALLAAAKPDAQALTELAQGSAIGALVLDPDYVVNGDIADIVVAATSGQLTRWTRFSAQPVATMDPTRRLARLQSEETEPLCPDPGIADTAAILLAAEQIGAAERCLQLTVEYAKSRVQFGRPIGSFQALKHRMADLYVTIAAARAVVADACHAPTPTNAATARLAASEALSTAAAEGIQLHGGIAITWEHDMHLYFKRAHGSAQLLESPREVLRRLESEVWESP	not soluble
MTPRKPAVKKEVKEEEPGAPGKEGAAEGPLDPSGYNPAKNNYHPVEDACWKPGQKVPYLAVARTFEKIEEVSARLRMVETLSNLLRSVVALSPPDLLPVLYLSLNHLGPPQQGLELGVGDGVLLKAVAQATGRQLESVRAEAAEKGDVGLVAENSRSTQRLMLPPPPLTASGVFSKFRDIARLTGSASTAKKIDIIKGLFVACRHSEARFIARSLSGRLRLGLAEQSVLAALSQAVSLTPPGQEFPPAMVDAGKGKTAEARKTWLEEQGMILKQTFCEVPDLDRIIPVLLEHGLERLPEHCKLSPGIPLKPMLAHPTRGISEVLKRFEEAAFTCEYKYDGQRAQIHALEGGEVKIFSRNQEDNTGKYPDIISRIPKIKLPSVTSFILDTEAVAWDREKKQIQPFQVLTTRKRKEVDASEIQVQVCLYAFDLIYLNGESLVREPLSRRRQLLRENFVETEGEFVFATSLDTKDIEQIAEFLEQSVKDSCEGLMVKTLDVDATYEIAKRSHNWLKLKKDYLDGVGDTLDLVVIGAYLGRGKRAGRYGGFLLASYDEDSEELQAICKLGTGFSDEELEEHHQSLKALVLPSPRPYVRIDGAVIPDHWLDPSAVWEVKCADLSLSPIYPAARGLVDSDKGISLRFPRFIRVREDKQPEQATTSAQVACLYRKQSQIQNQQGEDSGSDPEDTY	soluble
MTPWLGLIVLLGSWSLGDWGAEACTCSPSHPQDAFCNSDIVIRAKVVGKKLVKEGPFGTLVYTIKQMKMYRGFTKMPHVQYIHTEASESLCGLKLEVNKYQYLLTGRVYDGKMYTGLCNFVERWDQLTLSQRKGLNYRYHLGCNCKIKSCYYLPCFVTSKNECLWTDMLSNFGYPGYQSKHYACIRQKGGYCSWYRGWAPPDKSIINATDP	not soluble
MTQAADILIAGGGLNGPALALALARNGFSVTVVDGRPAPQRAEPGFDGRAYALALASKRLLAALGLWDGLASQAQPILRVVTADGTTAGGPSPFVLAFDHAEIEEGPMGYLLEDRFLYAAFLAALEAEPRIRLVSGTTVEAQEVGPQGVTVTLSTGAQLSGRLLVGCDGRQSGTARRAGIRRSGWGYGQTALVTAIEHERPHEGTAWQYFLPGGPLAILPLPGGHRSSIVWSESDAAAAGIQRLPDADYLGALRPRFGDFLGSIRLAGDRFTYPLSLSLAHSFVAPRVALVGDAAHGVHPIAGQGLNLGLRDVAALAEVLTLAARRGEDVGSPLVLDRYQQWRRFDATALALGMDMVNRLFSNDNPVMRAGRDLSMGIVNALPGLRRGFIRQAAGLSGDLPRLLQGRPILEHHHHHH	not soluble
MTQAEIKLCSLLLQEHFGEIVEKIGVHLIRTGSQPLRVIAHDTGTSLDQVKKALCVLVQHNLVSYQVHKRGVVEYEAQCSRVLRMLRYPRYIYTTKTLYSDTGELIVEELLLNGKLTMSAVVKKVADRLTETMEDGKTMDYAEVSNTFVRLADTHFVQRCPSVPTTENSDPGPPPPAPTLVINEKDMYLVPKLSLIGKGKRRRSSDEDAAGEPKAKRPKYTTDNKEPIPDDGIYWQANLDRFHQHFRDQAIVSAVANRMDQTSSEIVRTMLRMSEITTSSSAPFTQPLSSNEIFRSLPVGYNISKQVLDQYLTLLADDPLEFVGKSGDSGGGMYVINLHKALASLATATLKSVVQERFGSRCARIFRLVLQKKHIEQKQVEDFAMIPAKEAKDMLYKMLSENFMSLQVGCQ	not soluble
MTQFNGKKIQEKIVSYCIDEVELDLITASDIAFHMTDWLNNLEDLVAFYKTPDEYSPEQLNNILMGFLYHVPNHTIAAAKLLLDVQVTDVFGVGVIADNKDE	not soluble
MTQHPFISRVAVRNYKSIGYCDVNLRPLTYLVGHNGAGKSNFMDALHFVCDALSYSLDSALNERGGINEVRRRSGGHPTHFALRVEFVMQSGQAGRYGFVIGALKNGGYEVQREECVVAGIGKGPFFRIEKGKLRDSSETTFPSVTADRLALVAASGLTAFRPVFDALTAMGFYNLNPKLMRELQKPQDGRLLRPAGENIASVIGHLEKVAPAQMALIQEYLHSVAPMVHGVERKPIGPMETLEFRQDMAGSKHPWRFLAQNMSDGTLRALGVLSALLQGNVDYSPTLIGIEEPETALHPAASAALREALVRASETTQVLVTSHSPDLLDDHSIDADAVLAVVSEAGETKVAPLDEGSRQVMRDHLFSAGELLRMNQLAPDRASLEQQDKAASGDLFGETESVLEHHHHHH	soluble
